From patent publication US20050186203A1 (published 2005)

Tests used:
[1] = target: T1, purified full-length human IGF-I receptor (affinity purified); directly coated or biotinylated and captured on … (human, UniProt P08069 31-1367, biotinylated with PEO-maleimide-biotin reagent in the captured format); assay: ELISA binding competition with murine EM164 on full-length IGF-I receptor
T1 construct: mature; also called purified human IGF-I receptor; biotinylated human IGF-I receptor
Procedure: (§1) After equilibration, the bound humanized antibody was detected using a goat-anti-human-Fab′₂-antibody-horseradish peroxidase conjugate. Plots of ([bound murine Ab]/[bound humanized Ab]) vs ([murine Ab]/[humanized Ab]), which theoretically yield a straight line with slope=(K_{d humanized Ab}/K_{d murine Ab}), were used to determine the relative affinities of the humanized and murine antibodies.
(§2) An Immulon-2HB ELISA plate was coated with 100 μL of 5 μg/mL streptavidin per well in carbonate buffer at ambient temperature for 7 h. […] The wells were then washed with TBS-T buffer and incubated with goat-anti-human-Fab′₂-antibody-horseradish peroxidase conjugate for 1 h (100 μL; 1 μg/mL in blocking buffer), followed by washes and detection using ABTS/H₂O₂ substrate at 405 nm.

[2] = target: T1, purified full-length human IGF-I …; assay: ELISA binding competition with murine EM164 on captured biotinylated IGF-I receptor
Procedure: as §1, §2

[3] = target: IGF-I receptor of 3T3 cells (mouse) (mouse, UniProt Q60751 31-1373); assay: immunoprecipitation from cell lysate, Western blot
[4] = target: T2, human insulin receptor, overexpressed on 3T3-like cells of IGF-I receptor deficient mice (human, UniProt P06213 28-1382); assay: FACS on cells overexpressing human insulin receptor
T2 construct: whole, on cells; also called insulin receptor overexpressing cells
Procedure: The cells were pelleted by centrifugation and washed with cold FACS buffer by gentle flicking, followed by incubation with goat-anti-mouse-IgG-antibody-FITC conjugate (100 μL; 10 μg/mL in FACS buffer) on ice for 1 h. The cells were pelleted, washed, and resuspended in 120 μL of 1% formaldehyde solution in PBS. The plate was analyzed using a FACSCalibur reader (BD Biosciences).

Chain of IGF-I receptor of 3T3 cells (mouse) (Q60751 31-1373 limits assumed): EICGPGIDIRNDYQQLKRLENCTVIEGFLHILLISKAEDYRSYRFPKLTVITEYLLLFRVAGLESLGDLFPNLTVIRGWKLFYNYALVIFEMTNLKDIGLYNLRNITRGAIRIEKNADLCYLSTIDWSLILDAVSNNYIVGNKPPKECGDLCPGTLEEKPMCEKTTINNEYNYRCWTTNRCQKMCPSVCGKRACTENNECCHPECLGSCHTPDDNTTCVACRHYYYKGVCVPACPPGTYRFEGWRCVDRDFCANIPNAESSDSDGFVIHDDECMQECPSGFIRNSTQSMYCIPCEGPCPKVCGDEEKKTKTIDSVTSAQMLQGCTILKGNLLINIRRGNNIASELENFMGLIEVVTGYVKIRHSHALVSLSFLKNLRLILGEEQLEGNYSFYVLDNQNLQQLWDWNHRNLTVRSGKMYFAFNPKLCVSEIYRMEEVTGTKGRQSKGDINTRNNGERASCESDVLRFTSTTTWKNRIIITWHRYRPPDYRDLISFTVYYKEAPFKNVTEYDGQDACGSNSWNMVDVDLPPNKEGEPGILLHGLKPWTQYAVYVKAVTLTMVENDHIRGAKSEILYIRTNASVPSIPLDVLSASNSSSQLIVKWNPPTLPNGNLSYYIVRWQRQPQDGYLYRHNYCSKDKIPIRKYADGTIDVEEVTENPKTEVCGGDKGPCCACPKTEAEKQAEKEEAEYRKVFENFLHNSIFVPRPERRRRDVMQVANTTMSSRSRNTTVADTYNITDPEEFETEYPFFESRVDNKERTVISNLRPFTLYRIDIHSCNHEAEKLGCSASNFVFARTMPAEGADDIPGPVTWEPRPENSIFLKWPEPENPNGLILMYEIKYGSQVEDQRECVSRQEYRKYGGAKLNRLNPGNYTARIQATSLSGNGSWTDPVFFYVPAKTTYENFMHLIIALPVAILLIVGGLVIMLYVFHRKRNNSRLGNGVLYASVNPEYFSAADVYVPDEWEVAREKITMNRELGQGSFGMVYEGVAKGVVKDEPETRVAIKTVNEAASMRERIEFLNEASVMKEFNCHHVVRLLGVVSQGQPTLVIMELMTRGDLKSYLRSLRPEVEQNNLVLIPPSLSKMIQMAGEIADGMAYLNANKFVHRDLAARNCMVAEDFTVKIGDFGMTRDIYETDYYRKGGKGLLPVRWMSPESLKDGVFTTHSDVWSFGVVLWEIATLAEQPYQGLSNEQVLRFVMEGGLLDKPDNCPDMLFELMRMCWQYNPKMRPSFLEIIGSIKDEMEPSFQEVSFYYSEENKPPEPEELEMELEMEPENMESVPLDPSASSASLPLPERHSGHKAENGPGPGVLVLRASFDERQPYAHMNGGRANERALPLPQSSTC

B1: humanized EM164 antibody version 1.1 (antibody, V domains shown)
VH: QVQLVQSGAEVVKPGASVKLSCKASGYTFTSYWMHWVKQRPGQGLEWIGEINPSNGRTNYNQKFQGKATLTVDKSSSTAYMQLSSLTSEDSAVYYFARGRPDYYGSSKWYFDVWGQGTTVTVS
VL: DVLMTQTPLSLPVSLGDPASISCRSSQSIVHSNVNTYLEWYLQKPGQSPKLLIYKVSNRFSGVPDRFSGSGAGTDFTLRISRVEAEDLGIYYCFQGSHVPPTFGGGTKLEIKR
notes: Expressed transiently in 293T cells; also called huEM164 V1.1; v1.1
[1]
  binding result: binds

B2: humanized EM164 antibody version 1.0 (antibody, V domains shown)
VH: QVQLVQSGAEVVKPGASVKLSCKASGYTFTSYWMHWVKQRPGQGLEWIGEINPSNGRTNYNQKFQGKATLTVDKSSSTAYMQLSSLTSEDSAVYYFARGRPDYYGSSKWYFDVWGQGTTVTVS
VL: DVVMTQTPLSLPVSLGDPASISCRSSQSIVHSNVNTYLEWYLQKPGQSPRLLIYKVSNRFSGVPDRFSGSGAGTDFTLRISRVEAEDLGIYYCFQGSHVPPTFGGGTKLEIKR
notes: Expressed transiently in 293T cells; also called huEM164 V1.0; huEM164 v1.0
[2]
  binding result: binds

B3: humanized EM164 antibody version 1.2 (antibody, V domains shown)
VH: QVQLVQSGAEVVKPGASVKLSCKASGYTFTSYWMHWVKQRPGQGLEWIGEINPSNGRTNYNQKFQGKATLTVDKSSSTAYMQLSSLTSEDSAVYYFARGRPDYYGSSKWYFDVWGQGTTVTVS
VL: DVLMTQTPLSLPVSLGDPASISCRSSQSIVHSNVNTYLEWYLQKPGQSPRLLIYKVSNRFSGVPDRFSGSGAGTDFTLRISRVEAEDLGIYYCFQGSHVPPTFGGGTKLEIKR
notes: Expressed transiently in 293T cells; also called huEM164 V1.2; v1.2
[1]
  binding result: binds

B4: murine anti-IGF-I receptor antibody EM164 (antibody, V domains shown)
VH: QVQLQQSGAELVKPGASVKLSCKASGYTFTSYWMHWVKQRPGQGLEWIGEINPSNGRTNYNEKFKRKATLTVDKSSSTAYMQLSSLTSEDSAVYYFARGRPDYYGSSKWYFDVWGAGTTVTVS
VL: DVLMTQTPLSLPVSLGDQASISCRSSQSIVHSNVNTYLEWYLQKPGQSPKLLIYKVSNRFSGVPDRFSGSGSGTDFTLRISRVEAEDLGIYYCFQGSHVPPTFGGGTKLEIKR
notes: also called EM164 antibody; muEM164
[3]
  binding result: no binding
[4]
  binding result: no binding (tested: 50-100 nM)
